Measured values reported in US20160304570A1.
Read-outs that look alike come from different tables or passages of the source. Non-standard residues stand in square brackets, D forms with d. Groups on a side chain read outwards from the residue. Primed or numbered codes have the meaning given here. No end group written: not given here. *: point of attachment. X2 = ((2-hydroxyethyl)thio)acetamide, O=C(CSCCO)*; PEG11′ = not defined here; Nva = CCC[C@H](N)C(=O)O; Abu = CC[C@H](N)C(=O)O; Atz = not defined here

Key:
Assay in all cases: cell-based or functional assay
[1] = target: human Nav1.3 voltage-gated sodium channel (human) (UniProt Q9NY46)
human Nav1.3 voltage-gated sodium channel (human), sequence (Q9NY46 whole entry): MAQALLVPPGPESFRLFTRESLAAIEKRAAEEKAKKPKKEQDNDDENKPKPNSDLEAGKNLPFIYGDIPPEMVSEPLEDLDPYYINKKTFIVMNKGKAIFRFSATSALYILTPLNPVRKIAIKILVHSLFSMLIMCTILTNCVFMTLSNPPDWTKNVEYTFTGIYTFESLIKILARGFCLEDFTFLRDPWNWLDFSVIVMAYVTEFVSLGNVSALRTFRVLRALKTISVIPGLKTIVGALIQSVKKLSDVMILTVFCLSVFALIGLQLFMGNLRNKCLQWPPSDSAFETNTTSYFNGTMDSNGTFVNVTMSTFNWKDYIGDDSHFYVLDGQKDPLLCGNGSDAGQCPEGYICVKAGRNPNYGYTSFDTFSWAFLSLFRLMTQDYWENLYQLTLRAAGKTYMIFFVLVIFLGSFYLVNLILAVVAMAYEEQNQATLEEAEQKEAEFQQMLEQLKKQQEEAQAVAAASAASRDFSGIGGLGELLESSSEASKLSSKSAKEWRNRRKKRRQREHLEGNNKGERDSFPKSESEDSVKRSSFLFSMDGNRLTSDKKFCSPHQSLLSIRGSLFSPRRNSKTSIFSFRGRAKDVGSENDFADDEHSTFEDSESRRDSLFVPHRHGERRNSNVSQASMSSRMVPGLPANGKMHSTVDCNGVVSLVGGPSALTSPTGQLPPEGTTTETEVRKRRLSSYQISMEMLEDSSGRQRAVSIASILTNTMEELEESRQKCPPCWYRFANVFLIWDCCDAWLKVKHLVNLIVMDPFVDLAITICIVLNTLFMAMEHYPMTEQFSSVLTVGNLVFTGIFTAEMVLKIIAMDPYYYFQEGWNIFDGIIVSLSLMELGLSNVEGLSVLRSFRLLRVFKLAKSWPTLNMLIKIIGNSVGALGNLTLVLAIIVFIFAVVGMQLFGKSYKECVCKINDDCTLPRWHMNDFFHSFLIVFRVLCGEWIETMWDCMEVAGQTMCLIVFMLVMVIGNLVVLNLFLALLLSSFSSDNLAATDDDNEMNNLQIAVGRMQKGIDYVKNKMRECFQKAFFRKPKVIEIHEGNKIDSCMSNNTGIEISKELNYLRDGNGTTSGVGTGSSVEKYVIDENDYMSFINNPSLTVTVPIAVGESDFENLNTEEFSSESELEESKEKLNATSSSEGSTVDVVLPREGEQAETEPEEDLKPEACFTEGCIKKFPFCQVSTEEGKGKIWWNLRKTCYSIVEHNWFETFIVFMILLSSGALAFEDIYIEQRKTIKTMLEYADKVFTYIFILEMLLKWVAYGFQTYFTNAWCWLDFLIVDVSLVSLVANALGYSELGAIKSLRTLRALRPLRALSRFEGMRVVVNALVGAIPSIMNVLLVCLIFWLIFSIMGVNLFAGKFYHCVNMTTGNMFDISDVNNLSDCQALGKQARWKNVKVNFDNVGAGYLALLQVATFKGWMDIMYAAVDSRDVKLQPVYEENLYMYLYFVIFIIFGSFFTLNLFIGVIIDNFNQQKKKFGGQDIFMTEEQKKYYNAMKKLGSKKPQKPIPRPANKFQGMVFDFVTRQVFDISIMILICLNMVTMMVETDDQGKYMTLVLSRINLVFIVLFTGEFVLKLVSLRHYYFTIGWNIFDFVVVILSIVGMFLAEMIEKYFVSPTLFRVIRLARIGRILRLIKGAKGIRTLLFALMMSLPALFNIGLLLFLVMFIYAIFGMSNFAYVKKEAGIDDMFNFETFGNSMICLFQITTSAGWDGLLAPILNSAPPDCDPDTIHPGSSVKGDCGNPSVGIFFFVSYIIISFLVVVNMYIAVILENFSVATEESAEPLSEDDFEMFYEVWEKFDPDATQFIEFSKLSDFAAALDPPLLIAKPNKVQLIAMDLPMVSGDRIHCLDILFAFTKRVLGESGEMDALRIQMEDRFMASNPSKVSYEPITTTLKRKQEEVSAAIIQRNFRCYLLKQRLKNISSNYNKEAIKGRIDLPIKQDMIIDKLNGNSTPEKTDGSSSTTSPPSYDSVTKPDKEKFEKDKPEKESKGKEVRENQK

[2] = target: human Nav1.7 voltage-gated sodium channel (human) (UniProt Q15858)
[3] = target: human Nav1.5 voltage-gated sodium channel (human) (UniProt Q14524)
[4] = target: human voltage-gated sodium channel Nav1.5 (human) (UniProt Q14524)
[5] = target: human voltage-gated sodium channel Nav1.7 (human) (UniProt Q15858)
[6] = target: human voltage-gated sodium channel Nav1.3 (human) (UniProt Q9NY46)
human voltage-gated sodium channel Nav1.3 (human), sequence (Q9NY46 whole entry): as above

[7] = target: human voltage-gated sodium channel Nav1.4 (human) (UniProt P35499)
human voltage-gated sodium channel Nav1.4 (human), sequence (P35499 whole entry): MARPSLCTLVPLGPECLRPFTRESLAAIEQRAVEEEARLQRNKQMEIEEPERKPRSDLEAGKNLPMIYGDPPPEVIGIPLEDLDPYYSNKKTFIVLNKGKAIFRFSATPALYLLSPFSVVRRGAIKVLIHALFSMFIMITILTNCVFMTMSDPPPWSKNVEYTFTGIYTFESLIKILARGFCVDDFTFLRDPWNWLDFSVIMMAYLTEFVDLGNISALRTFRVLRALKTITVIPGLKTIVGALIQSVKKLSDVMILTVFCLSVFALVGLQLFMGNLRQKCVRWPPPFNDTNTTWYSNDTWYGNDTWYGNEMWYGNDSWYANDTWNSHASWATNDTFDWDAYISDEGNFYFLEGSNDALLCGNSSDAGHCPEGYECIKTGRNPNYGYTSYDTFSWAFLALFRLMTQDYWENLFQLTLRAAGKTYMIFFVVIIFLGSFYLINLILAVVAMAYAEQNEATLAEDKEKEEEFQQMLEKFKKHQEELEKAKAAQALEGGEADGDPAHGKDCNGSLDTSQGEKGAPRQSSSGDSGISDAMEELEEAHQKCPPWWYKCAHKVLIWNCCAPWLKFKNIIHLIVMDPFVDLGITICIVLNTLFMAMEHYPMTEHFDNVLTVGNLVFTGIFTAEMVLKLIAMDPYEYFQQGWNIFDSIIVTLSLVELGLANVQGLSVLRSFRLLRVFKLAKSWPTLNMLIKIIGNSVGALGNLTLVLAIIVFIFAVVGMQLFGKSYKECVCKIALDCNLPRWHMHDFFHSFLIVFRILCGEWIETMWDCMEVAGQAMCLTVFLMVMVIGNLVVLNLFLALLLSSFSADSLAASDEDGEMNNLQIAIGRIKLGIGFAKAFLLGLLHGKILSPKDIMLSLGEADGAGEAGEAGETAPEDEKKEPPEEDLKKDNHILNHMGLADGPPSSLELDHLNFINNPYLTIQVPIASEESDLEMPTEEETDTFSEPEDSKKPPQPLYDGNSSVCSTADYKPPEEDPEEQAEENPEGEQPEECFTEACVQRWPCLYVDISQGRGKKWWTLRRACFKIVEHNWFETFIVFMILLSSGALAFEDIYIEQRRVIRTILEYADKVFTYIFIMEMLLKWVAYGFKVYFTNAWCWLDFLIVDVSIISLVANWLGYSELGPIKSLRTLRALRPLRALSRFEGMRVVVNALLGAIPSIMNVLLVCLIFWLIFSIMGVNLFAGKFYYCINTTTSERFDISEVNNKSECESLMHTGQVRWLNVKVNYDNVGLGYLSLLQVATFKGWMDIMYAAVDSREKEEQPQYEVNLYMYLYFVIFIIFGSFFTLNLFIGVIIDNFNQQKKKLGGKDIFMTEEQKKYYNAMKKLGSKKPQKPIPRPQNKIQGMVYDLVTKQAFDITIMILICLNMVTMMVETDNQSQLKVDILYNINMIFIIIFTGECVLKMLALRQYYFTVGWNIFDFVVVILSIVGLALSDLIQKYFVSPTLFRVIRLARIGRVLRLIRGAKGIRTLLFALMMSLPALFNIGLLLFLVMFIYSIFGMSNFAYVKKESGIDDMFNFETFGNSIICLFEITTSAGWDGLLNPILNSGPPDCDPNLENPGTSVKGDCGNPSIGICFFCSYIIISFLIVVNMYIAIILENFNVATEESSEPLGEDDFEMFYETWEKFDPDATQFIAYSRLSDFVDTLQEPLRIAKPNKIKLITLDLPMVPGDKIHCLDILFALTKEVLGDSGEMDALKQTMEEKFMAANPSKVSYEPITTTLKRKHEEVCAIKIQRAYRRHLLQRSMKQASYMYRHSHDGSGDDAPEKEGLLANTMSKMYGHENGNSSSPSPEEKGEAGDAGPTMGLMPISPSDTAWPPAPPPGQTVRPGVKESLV

[8] = target: human voltage-gated sodium channel Nav1.5 (human) (UniProt Q14524); remark: listed apart in the source
[9] = target: human voltage-gated sodium channel Nav1.7 (human) (UniProt Q15858); remark: listed apart in the source
[10] = target: human voltage-gated sodium channel Nav1.4 (human) (UniProt P35499); remark: listed apart in the source

[2-Abu5;Leu6;K(4-Pen)13;Arg28]GpTx-1(1-34) (peptide)
IWQ Use Nav1.3 IC50 (IonWorks Quattro electrophysiology) [1]: 0.81 µM
IWQ Use Nav1.7 IC50 (IonWorks Quattro electrophysiology) [2]: 0.55 µM
IWQ Use Nav1.5 IC50 (IonWorks Quattro electrophysiology) [3]: 39.7 µM
Nav1.5 Use IC50 (µM), electrophysiology by PatchXpress [4]: > 10 µM
Nav1.7 Use IC50 (µM), electrophysiology by PatchXpress [5]: 0.002 µM

[Nva5;Leu6;K(4-Pen)13;Arg28]GpTx-1(1-34) (peptide)
IWQ Use Nav1.3 IC50 (IonWorks Quattro electrophysiology) [1]: 0.27 µM
IWQ Use Nav1.7 IC50 (IonWorks Quattro electrophysiology) [2]: 0.31 µM
IWQ Use Nav1.5 IC50 (IonWorks Quattro electrophysiology) [3]: 37.5 µM

[Ala5;Phe6;Glu13;Arg28]GpTx-1(1-34)-FreeAcid (peptide)
IWQ Use Nav1.3 IC50 [6]: 1900 nM

[Ala5;Leu6,26;Pra13;Arg28]GpTx-1(1-34) (peptide)
IWQ Use Nav1.3 IC50 (IonWorks Quattro electrophysiology) [1]: 0.48 µM
IWQ Use Nav1.7 IC50 (IonWorks Quattro electrophysiology) [2]: 0.22 µM
IWQ Use Nav1.5 IC50 (IonWorks Quattro electrophysiology) [3]: 36.4 µM
Nav1.5 Use IC50 (µM), electrophysiology by PatchXpress [4]: > 10 µM
Nav1.7 Use IC50 (µM), electrophysiology by PatchXpress [5]: 0.009 µM

[Ala5;Phe6;Glu10;K(Biotin)13;Leu26;Arg28]GpTx-1(1-34) (peptide)
Nav1.5 Use IC50 (µM), PatchXpress electrophysiology [4]: > 10 µM
Nav1.7 Use IC50 (µM), PatchXpress electrophysiology [5]: 0.015 µM
Nav1.4 Use IC50 (µM), PatchXpress electrophysiology [7]: 7.13 µM

[Ala5;Phe6;Ile13;Arg28]GpTx-1(1-34)-FreeAcid (peptide)
IWQ Use Nav1.3 IC50 [6]: 3000 nM

[Ala5;Phe6;Ser13;Arg28]GpTx-1(1-34)-FreeAcid (peptide)
IWQ Use Nav1.3 IC50 [6]: 1100 nM

[Ala5;Leu6,26;Pra12;Arg28]GpTx-1(1-34) (peptide)
IWQ Use Nav1.3 IC50 (IonWorks Quattro electrophysiology) [1]: 0.54 µM
IWQ Use Nav1.7 IC50 (IonWorks Quattro electrophysiology) [2]: 0.26 µM
IWQ Use Nav1.5 IC50 (IonWorks Quattro electrophysiology) [3]: > 50 µM

[Ala5;Phe6;Lys13;Arg28]GpTx-1(1-34)-FreeAcid (peptide)
IWQ Use Nav1.3 IC50 [6]: 300 nM
IWQ Use Nav1.5 IC50 [8]: 2800 nM
IWQ Use Nav1.7 IC50 [9]: 3600 nM

[Ala5;Phe6;Pra12;Leu26;Arg28]GpTx-1(1-34) (peptide)
IWQ Use Nav1.3 IC50 (IonWorks Quattro electrophysiology) [1]: 0.12 µM
IWQ Use Nav1.7 IC50 (IonWorks Quattro electrophysiology) [2]: 0.13 µM
IWQ Use Nav1.5 IC50 (IonWorks Quattro electrophysiology) [3]: 36.5 µM

4-Pen-[2-Abu5,13;Leu6;Arg28]GpTx-1(1-34) (peptide)
IWQ Use Nav1.3 IC50 (IonWorks Quattro electrophysiology) [1]: 0.9 µM
IWQ Use Nav1.7 IC50 (IonWorks Quattro electrophysiology) [2]: 0.54 µM
IWQ Use Nav1.5 IC50 (IonWorks Quattro electrophysiology) [3]: 36.8 µM
Nav1.5 Use IC50 (µM), electrophysiology by PatchXpress [4]: > 10 µM
Nav1.7 Use IC50 (µM), electrophysiology by PatchXpress [5]: 0.003 µM

[2-Abu5,Leu6,K(ethyl-triazole-PEG11-((2-hydroxyethyl)thio)acetamide)13,Arg28]GpTx-1(1-34) (peptide)
Nav1.5 Use IC50 (PatchXpress electrophysiology, inhibition of sodium current) [4]: > 10 µM
Nav1.7 Use IC50 (PatchXpress electrophysiology, inhibition of sodium current) [5]: 0.018 µM
Nav1.4 Use IC50 (PatchXpress electrophysiology, inhibition of sodium current) [7]: 9.88 µM

((2-Hydroxyethyl)thio)acetamide-NPEG11-triazole-[2-Abu5,13;Leu6;Arg28]GpTx-1(1-34) (peptide)
Nav1.5 Use IC50 (PatchXpress electrophysiology, inhibition of sodium current) [4]: > 10 µM
Nav1.7 Use IC50 (PatchXpress electrophysiology, inhibition of sodium current) [5]: 0.087 µM
Nav1.4 Use IC50 (PatchXpress electrophysiology, inhibition of sodium current) [7]: > 10 µM

[Ala5;Phe6;Thr13;Arg28]GpTx-1(1-34)-FreeAcid (peptide)
IWQ Use Nav1.3 IC50 [6]: 1300 nM

[Ala5;Phe6;Gln13;Arg28]GpTx-1(1-34)-FreeAcid (peptide)
IWQ Use Nav1.3 IC50 [6]: 1700 nM

4-Pen-[Nva5;Leu6;2-Abu13;Arg28]GpTx-1(1-34) (peptide)
IWQ Use Nav1.3 IC50 (IonWorks Quattro electrophysiology) [6]: 0.23 µM
IWQ Use Nav1.5 IC50 (IonWorks Quattro electrophysiology) [8]: 46.2 µM
IWQ Use Nav1.7 IC50 (IonWorks Quattro electrophysiology) [9]: 0.1 µM

[Ala5;Phe6;Glu10;Atz(PEG11-((2-hydroxyethyl)thio)acetamide)13;Leu26;Arg28]GpTx-1(1-34) (peptide)
Nav1.5 Use IC50 (PatchXpress electrophysiology, inhibition of sodium current) [4]: > 10 µM
Nav1.7 Use IC50 (PatchXpress electrophysiology, inhibition of sodium current) [5]: 0.021 µM
Nav1.4 Use IC50 (PatchXpress electrophysiology, inhibition of sodium current) [7]: > 10 µM

Biotin-Ahx-[2-Abu5,13;Leu6;Arg28]GpTx-1(1-34) (peptide)
Nav1.5 Use IC50 (µM), PatchXpress electrophysiology [4]: > 10 µM
Nav1.7 Use IC50 (µM), PatchXpress electrophysiology [5]: 0.011 µM
Nav1.4 Use IC50 (µM), PatchXpress electrophysiology [7]: 27.3 µM

[Ala5;Phe6;Glu10;Atz(PEG3-((2-hydroxyethyl)thio)acetamide)13;Leu26;Arg28]GpTx-1(1-34) (peptide)
Nav1.5 Use IC50 (PatchXpress electrophysiology, inhibition of sodium current) [4]: > 10 µM
Nav1.7 Use IC50 (PatchXpress electrophysiology, inhibition of sodium current) [5]: 0.013 µM
Nav1.4 Use IC50 (PatchXpress electrophysiology, inhibition of sodium current) [7]: 5.95 µM

[Ala5;Phe6;Glu10;Pra13;Leu26;Arg28]GpTx-1(1-34) (peptide)
IWQ Use Nav1.3 IC50 (IonWorks Quattro electrophysiology) [1]: 0.56 µM
IWQ Use Nav1.7 IC50 (IonWorks Quattro electrophysiology) [2]: 0.54 µM
IWQ Use Nav1.5 IC50 (IonWorks Quattro electrophysiology) [3]: 32.2 µM
Nav1.5 Use IC50 (µM), electrophysiology by PatchXpress [4]: 15.3 µM
Nav1.7 Use IC50 (µM), electrophysiology by PatchXpress [5]: 0.012 µM

[Ala5;Phe6;Leu13;Arg28]GpTx-1(1-34)-FreeAcid (peptide)
IWQ Use Nav1.3 IC50 [6]: 4500 nM
IWQ Use Nav1.7 IC50 [9]: 4500 nM

4-Pen-[Ala5;Phe6;2-Abu13;Arg28]GpTx-1(1-34) (peptide)
IWQ Use Nav1.3 IC50 (IonWorks Quattro electrophysiology) [6]: 0.26 µM
IWQ Use Nav1.5 IC50 (IonWorks Quattro electrophysiology) [8]: 44.4 µM
IWQ Use Nav1.7 IC50 (IonWorks Quattro electrophysiology) [9]: 0.18 µM
Nav1.5 Use IC50 (µM), electrophysiology by PatchXpress [4]: > 10 µM
Nav1.7 Use IC50 (µM), electrophysiology by PatchXpress [5]: 0.004 µM

[Ala5;Phe6;Asp13;Arg28]GpTx-1(1-34)-FreeAcid (peptide)
IWQ Use Nav1.3 IC50 [6]: 2300 nM

[Ala5;Phe6;Pro13;Arg28]GpTx-1(1-34)-FreeAcid (peptide)
IWQ Use Nav1.3 IC50 [6]: 2900 nM
IWQ Use Nav1.7 IC50 [9]: 2900 nM

[Ala5;Phe6;Met13;Arg28]GpTx-1(1-34)-FreeAcid (peptide)
IWQ Use Nav1.3 IC50 [6]: 800 nM
IWQ Use Nav1.7 IC50 [9]: 4700 nM

[Ala5;Phe6,13;Arg28]GpTx-1(1-34)-FreeAcid (peptide)
IWQ Use Nav1.3 IC50 [6]: 1200 nM

[Ala5;Phe6;Gly13;Arg28]GpTx-1(1-34)-FreeAcid (peptide)
IWQ Use Nav1.3 IC50 [6]: 1500 nM

[Ala5;Phe6;Arg13,28]GpTx-1(1-34)-FreeAcid (peptide)
IWQ Use Nav1.3 IC50 [6]: 600 nM
IWQ Use Nav1.7 IC50 [9]: 4500 nM

[Ala5;Phe6;Val13;Arg28]GpTx-1(1-34)-FreeAcid (peptide)
IWQ Use Nav1.3 IC50 [6]: 1700 nM

DCLGALRKCIPDHDKCCRPNLVCSRTHRWCKYVF-OH (ends and bridges not checked) [[Ala5;Leu6;His13;Arg28]GpTx-1(1-34)-FreeAcid]
IWQ Use Nav1.3 [6]: 3.9 µM
IWQ Use Nav1.5 [8]: > 5 µM
IWQ Use Nav1.7 [9]: > 5 µM
IWQ Use Nav1.4 [10]: > 5 µM

B1: [Ala5;Leu6,26;Glu10;Atz(PEG11-((2-hydroxyethyl)thio)acetamide)13;Arg28]GpTx-1(1-34) (peptide)
peptide: DCLGALRKCEPD[Atz]([PEG11′-X2])DKCCRPNLVCSRLHRWCKYVF
modifications: ends and bridges not checked; also: printed as [Ala5;Leu6,26;Glu10;Atz(PEG11-((2-hydroxyethyl)thio)acetamide)13;Arg28]GpTx-1(1-34)
Nav1.5 Use IC50 (PatchXpress electrophysiology, inhibition of sodium current) [8]: > 10 µM
Nav1.7 Use IC50 (PatchXpress electrophysiology, inhibition of sodium current) [9]: 0.054 µM
Nav1.4 Use IC50 (PatchXpress electrophysiology, inhibition of sodium current) [10]: > 10 µM

D[Abu]LG[Nva]LRKCIPDNDKC[Abu]RPNLVCSRTHEWCKYVF (ends and bridges not checked) [[2-Abu2,17;Nva5;Leu6;Glu28]GpTx-1(1-34)]
IWQ Use Nav1.3 (µM) (IC50, IonWorks Quattro population patch clamp) [6]: > 5 µM
IWQ Use Nav1.5 (µM) (IC50, IonWorks Quattro population patch clamp) [8]: > 50 µM
IWQ Use Nav1.7 (µM) (IC50, IonWorks Quattro population patch clamp) [9]: > 5 µM
IWQ Use Nav1.4 (µM) (IC50, IonWorks Quattro population patch clamp) [10]: > 50 µM

D[Abu]LGALRKCIPDNDKC[Abu]RPNLVCSRTHEWCKYVF (ends and bridges not checked) [[2-Abu2,17;Ala5;Leu6;Glu28]GpTx-1(1-34)]
IWQ Use Nav1.3 (µM) (IC50, IonWorks Quattro population patch clamp) [6]: > 5 µM
IWQ Use Nav1.5 (µM) (IC50, IonWorks Quattro population patch clamp) [8]: > 50 µM
IWQ Use Nav1.7 (µM) (IC50, IonWorks Quattro population patch clamp) [9]: 4.3 µM
IWQ Use Nav1.4 (µM) (IC50, IonWorks Quattro population patch clamp) [10]: > 50 µM

D[Abu]LG[Abu]LRKCIPDNDKC[Abu]RPNLVCSRTHEWCKYVF (ends and bridges not checked) [[2-Abu2,5,17;Leu6;Glu28]GpTx-1(1-34)]
IWQ Use Nav1.3 (µM) (IC50, IonWorks Quattro population patch clamp) [6]: > 5 µM
IWQ Use Nav1.5 (µM) (IC50, IonWorks Quattro population patch clamp) [8]: > 50 µM
IWQ Use Nav1.7 (µM) (IC50, IonWorks Quattro population patch clamp) [9]: 4.3 µM
IWQ Use Nav1.4 (µM) (IC50, IonWorks Quattro population patch clamp) [10]: > 50 µM

D[Abu]LGVLRKCIPDNDKC[Abu]RPNLVCSRTHEWCKYVF (ends and bridges not checked) [[2-Abu2,17;Val5;Leu6;Glu28]GpTx-1(1-34)]
IWQ Use Nav1.3 (µM) (IC50, IonWorks Quattro population patch clamp) [6]: > 5 µM
IWQ Use Nav1.5 (µM) (IC50, IonWorks Quattro population patch clamp) [8]: 33 µM
IWQ Use Nav1.7 (µM) (IC50, IonWorks Quattro population patch clamp) [9]: > 5 µM
IWQ Use Nav1.4 (µM) (IC50, IonWorks Quattro population patch clamp) [10]: > 50 µM
